According to the nanobody polyreactivity screen of Harvey et al. (2022):

Assay: yeast display, Sf9 membrane polyspecificity reagent, FACS + sequencing; frameworks hold sequencing errors
How it was run: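 A nanobody's polyreactivity label depends on the gate it was sorted from. Yeast display cells were stained with 10% biotinylated, detergent-solubilized Sf9 membrane reagent for 1 hour at 4 °C, enriched on streptavidin microbeads and sorted by FACS. The low and high (top ~1%) gates were set on anti-HA fluorescence for expression and streptavidin fluorescence for reagent binding.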

| Sequence | polyreactivity (PSR sort gate) |
| --- | --- |
| QVQLVESGGGLVQAGGSLRLICAASGSTLYRYAMGWYRPAPGKERELVAAISSAGSTHYADSVKGRFTISRDNAKNTVYLQMNSLKPEDTAVYYCAAKRYLKYGYWGQGTQVTVSS | high polyreactivity |
| QVQLVESGGGLVQAGGSLRLICAASGSTYHYAMGWYRQAPGKERELVASITWRGDTTYYADSVKGRFTISRDNAKYNVYLQMNSLKPEDTAVYYCAAYHFSFGWIRVDYWGQGTQVTVSS | high polyreactivity |
| QVQLVESGGGLVQAGGSLRLICAASGSYAMGWYRQAPGKERELVASIDGPGGSTYYADSVKGRFTISRDNAKNTVYLQMNSLKPEDTAVYYCEDWAPGLYDYWGQGTQVTVSS | low polyreactivity |
| QVQLVESGGGLVQAGGSLRLICAASGYIFYAYALGWYRQAPGKERELVAAITDNGVSTFYADSVKGRFTISRDNAKNTVYLHMKSLKPEETAVYYCATSSTHSRGDEYWGQGTQVTVSS | low polyreactivity |
| QVQLVESGGGLVQAGGSLRLICAASRFYTMGWYRQATVKERELVAAISWSGGDTYYADSVKGRFTISRDNAKNTVYLQMNSLKPEDTAVYYCAKKTIGSYVHEPFYYWGQGTQVTVSS | low polyreactivity |
| QVQLVESGGGLVQAGGSLRLICAASRSIFEINAMGWYSQAPGKERELVADNRRGDSTNYADSVNGRFTISRDNAKNTVYLQMNSLKPEVTAVYYCAARWRRSIYGVYPQRPYDYWGQGTQVTVSS | high polyreactivity |
| QVQLVESGGGLVQAGGSLRLICAASVTTFPYYAMGWYRQAPGKERELVAAITSSGGSTYYADSVKGRFTISRDNAKNTVYLQMNSLIPEDTAVYYCAKGYGPYRQMNYWGQGTQVTVSS | low polyreactivity |
| QVQLVESGGGLVQAGGSLRLICAATGITFITYVMGWYSQAPGKERELVAAISLRGGRTSYADSVKGRFTISRDNAKNTVYLQMNSLKPEDTAVYYCAARGGAYQNAYEYDYWGPGTQVTVSS | high polyreactivity |
| QVQLVESGGGLVQAGGSLRLICAAYGGIFISYAMGWYRQAPWKERELVAAINYSGGSTNYADSVKGRFTLSRDNAKNTVYLQMNSLKPEDTAVYYCAARSTARYGYWGQGTQVTVSS | low polyreactivity |
| QVQLVESGGGLVQAGGSLRLICADSGFILPRNAMGWYRQAPGKERELVAAIRSSGGTTYYADSVKGRFTISRDIAKNTVYLQMNSLKPEDTAVYYCAAVTTSKFNYWGQGTQVTVSS | low polyreactivity |
| QVQLVESGGGLVQAGGSLRLICADYGITFRVNAMGWYRQAPGKERELVASISRSGGSTYYADSVKGRFTISRDNAKNTVYLQMNSLKPEDTAVYYCAAAQKVLFYGRWFDYWGQCTQVTVSS | low polyreactivity |
| QVQLVESGGGLVQAGGSLRLICAPSGRIFEGYAMGWYRPATRKERELVAAISRGGGSTYYADSVKGRFTISRDNAKNTVYLQMNSLIPEDTAVYYCAKVPLTYSRSGYEYDYWGQGTQVSVSS | low polyreactivity |
| QVQLVESGGGLVQAGGSLRLICAPSGRITLRYAIGWYRQAPRKERDFVAAITVSGGSTYYADSVKGRFTISRDNAKNTVYLMMNRLKPEDTAVYYCAVRQKTQYGSKHDYWGQGTQVTVSS | high polyreactivity |
| QVQLVESGGGLVQAGGSLRLICAPSGSIFTYYAMGRYRQAPGKEKELVAAISQSGGTTYYADSVKGRFTISRDNAKNTVYLQMNSLKPEDTAVSYCAARAPSSFDTQYYYWGQGTQVTVSS | low polyreactivity |
| QVQLVESGGGLVQAGGSLRLICAPSGSTNRYYAIGWSRQAPRKEMELVAPISWRGGSTYYADSVKGRFRISRDNANNTVYLEMNSLKPEDTAVYYCNAAYSYAVRDPIDYGYWGQGTQVTVSS | high polyreactivity |
| QVQLVESGGGLVQAGGSLRLICDASGIYYRNAMGWYRQAPGKEREMVAAISWSGGSTYYADSVKGRFTISRDNAKNTVYLQMNSLNPEDTAVYYCAAVGGRYPSNVLGYYYWGQGTQVTVSS | high polyreactivity |

| Sequence | polyreactivity (PSR sort gate) |
| --- | --- |
| QVQLVESGGGLVQAGGSLRLICDASGRIFQFYAMGWYRQAPGKERELVAVITRRGGSTHYADSVKGRFTISRDNAKNTVYLQMNSLNPEDTAVYYCAAEWQTQGYEYWGQGTQVTVSS | high polyreactivity |
| QVQLVESGGGLVQAGGSLRLICDASGSIFRYYAMGWYRQAPGKERELVARISWRAGSTYADSVKGRFTISRDYAKNTVYLQINSQKPEDTAVYYCNADAHKDSWVGTSEYEYWGQGTQVTVSS | high polyreactivity |
| QVQLVESGGGLVQAGGSLRLLCAASGFTFGFNAMGWYRQAPGKERELVAAISRGGSTNYADSVKGLFTISRDNAKNTVYLQMNSLKPEDTAVYYCAADVITYVFRFYYWGQGTQVTVSS | low polyreactivity |
| QVQLVESGGGLVQAGGSLRLRCAASAGTFGIYSMGWYRQAPGKEREFVAAISGRGGTTYDADSVKGRFTISRDNAKYTVYLQMNSLKPVDTAVYYWATDSVNVGSNVGDKHDYWGQGTQVTVSS | low polyreactivity |
| QVQLVESGGGLVQAGGSLRLRCAASGFIFCSYAMGWYRQAPGKERELVAAINTSGDSTYYADSVKGRFTISRDNAKNTVYLQINSLKPEDTAVYYCAAESSPDGYFLSDYWGQGTQVTVSS | low polyreactivity |
| QVQLVESGGGLVQAGGSLRLRCAASGFIFGYYAMGWYRQAPGKERELVAAITTSGGSTYYADSVKARFTISRDNAKNTVYLQMNSLKPEDTAVYYCNKPGNYVWRRSWDFDYWGQGTQVTVSS | high polyreactivity |
| QVQLVESGGGLVQAGGSLRLRCAASGFTFAPNAMGWYRQAPGKERELVAAITWSGGSTYYADSVKGRFTISRDNAKNTVYVQMNSLKPEDTAVYYCNAVSRSTVTGQHDFWGQGTQVTVSS | high polyreactivity |
| QVQLVESGGGLVQAGGSLRLRCAASGGIFGFYAMGWYRQAPGKERELVAAISWGGGSTYYADSVKGRFTIARDNAKNTVFVQMNSLKPEDTAVYYCAADPALTKEYGYWGQGTQVTVSS | low polyreactivity |
| QVQLVESGGGLVQAGGSLRLRCAASGGIFTNNAKGWYRQAPGKERELVAAITGSGASTYYADSVKARFTISRDNAKNSVYLHLNSLKPEDTAVYYCNTDSPYGWEGEFDYWGLGTQVTVSS | high polyreactivity |
| QVQLVESGGGLVQAGGSLRLRCAASGGTFGVNAMGWYRQAPGKERELVAAISSSGGRTYYADSVKGRFTISRDNAKNTVYLQMNSLKPEDTAVYYCAARNYFWGQGTQVTVSS | low polyreactivity |
| QVQLVESGGGLVQAGGSLRLRCAASGIIFEYYAMGWYRQAPGKERELVAAITWNGGRTYYADSVKGRFTISRDNAKNTVYLQINSLKPEDTAVYYCAALTYYRDYWGLGTQVTVSS | high polyreactivity |
| QVQLVESGGGLVQAGGSLRLRCAASGIIFRGYAMGWYRPAPGKERELVAGITSGGDTNYADSVKGRFTISRDNAKNTVYVQMNSMNPEDTEGYYCATSDRRYRGRHYPFYKFDYWGQGPQVTVSS | low polyreactivity |
| QVQLVESGGGLVQAGGSLRLRCAASGIIFYRYAMGWYRQAPGKERELVAAINTSGGRTYYADSVKGRFTISRDNAKNTVYLQMNSLKPEDTAVYYCAAYYSPVGFQYDYWGQGTQVTVSS | high polyreactivity |
| QVQLVESGGGLVQAGGSLRLRCAASGITFPNYAMGWYRQAPGKERELVAAISSGGSTTYADSVKGRFTISRDNAKNTVYLQMNSLKPEDTAVYYCNADISAHYVIGVPTGYYWGQGTQVTVSS | low polyreactivity |
| QVQLVESGGGLVQAGGSLRLRCAASGLIFARNAMGWYRHAPGKERELVAAISRRGGSTYYADSVKGRFTISRDNAKNTVYLQMNSLKPEDTAVYYCAADTPYWQSSKYDYWGQGTQVTVSS | high polyreactivity |
| QVQLVESGGGLVQAGGSLRLRCAASGLIFYVYAMGWYRQAPGKERELVAAISYRGGSTYADSVKGRFTISRDNAKNTVYLQMNSLKPEDTAVYYCAAQRWYVYGLKYHYGYWGQGTQVTVSS | high polyreactivity |
